Data from patent publication US20150050670A1.
Values belong to the binder of their own block, whether it stands above or below them.

How the values were obtained:
Conditions in all cases: chains Vgamma:Vdelta
peptide on (human) [1] = assay: IFNγ ELISA, CD4+ transduced T-cells against Daudi, pamidronate titration; full-length, on cells; set-up: unit not given here
peptide on (human) [2] = assay: IFNγ ELISA, CD4+ transduced T-cells against Daudi, pamidronate titration; against γ9-G115wt/δ2-G115wt (max. 800 pg/ml); full-length, on cells
peptide on (human) [3] = assay: IFNγ ELISA, CD4+ transduced T-cells against Daudi, pamidronate titration; against γ9-G115wt/δ2-G115wt (max. 800 pg/ml); the clone number is missing in the printed name; full-length, on cells

EC50 of pamidronate (peptide on (human) [1]): 30 | maximal IFNγ secretion (peptide on (human) [2]): 600 µg/mL
B1: γ9-cl3wt/δ2-cl3wt (protein)
chain 1: AGHLEQPQISSTKTLSKTARLECVVSGITISATSVYWYRERPGEVIQFLVSISYDGTVRKESGIPSGKFEVDRIPETSTSTLTIHNVEKQDIATYYCALWEEELGKKIKVFGPGTKLIIT
chain 2: AIELVPEHQTVPVSIGVPATLRCSMKGEAIGNYYINWYRKTQGNTMTFIYREKDIYGPGFKDNFQGDIDIAKNLAVLKILAPSERDEGSYYCACDLLGYTDKLIFGKGTRVTVEP

maximal IFNγ secretion (peptide on (human) [3]): 100 pg/mL
B2: γ9-cl3wt/δ2-G115wt (protein)
chain 1: B1 chain 1
chain 2: AIELVPEHQTVPVSIGVPATLRCSMKGEAIGNYYINWYRKTQGNTMTFIYREKDIYGPGFKDNFQGDIDIAKNLAVLKILAPSERDEGSYYCACDTLGMGGEYTDKLIFGKGTRVTVEP
